Assay results as given in patent US20250352667A1.

Assays:
[1] = target: KEAP1 (wild-type full-length), His-tagged (human) (UniProt Q14145); assay: AlphaScreen; 19.2 nM FLAG-NRF2, 150 nM His-KEAP1; Rep 2
[2] = target: KEAP1 (wild-type full-length), His-tagged (human) (UniProt Q14145); assay: AlphaScreen; 38.4 nM FLAG-NRF2, 150 nM His-KEAP1; signal against NRF2 only
[3] = target: KEAP1 (wild-type full-length), His-tagged (human) (UniProt Q14145); assay: AlphaScreen; 19.2 nM FLAG-NRF2, 150 nM His-KEAP1; Rep 1
[4] = target: KEAP1 (wild-type full-length), His-tagged (human) (UniProt Q14145); assay: AlphaScreen; 614.4 nM FLAG-NRF2, 150 nM His-KEAP1; Rep 2
[5] = target: KEAP1 (wild-type full-length), His-tagged (human) (UniProt Q14145); assay: AlphaScreen; 2.4 nM FLAG-NRF2, 150 nM His-KEAP1; Rep 1
[6] = target: KEAP1 (wild-type full-length), His-tagged (human) (UniProt Q14145); assay: AlphaScreen; 4.8 nM FLAG-NRF2, 150 nM His-KEAP1; Rep 2
[7] = target: KEAP1 (wild-type full-length), His-tagged (human) (UniProt Q14145); assay: AlphaScreen; 76.8 nM FLAG-NRF2, 150 nM His-KEAP1; signal against NRF2 only
[8] = target: KEAP1 (wild-type full-length), His-tagged (human) (UniProt Q14145); assay: AlphaScreen; 38.4 nM FLAG-NRF2, 150 nM His-KEAP1; Rep 2
[9] = target: KEAP1 (wild-type full-length), His-tagged (human) (UniProt Q14145); assay: AlphaScreen; 307.2 nM FLAG-NRF2, 150 nM His-KEAP1; Rep 1
[10] = target: KEAP1 (wild-type full-length), His-tagged (human) (UniProt Q14145); assay: AlphaScreen; 76.8 nM FLAG-NRF2, 150 nM His-KEAP1; Rep 1
[11] = target: KEAP1 (wild-type full-length), His-tagged (human) (UniProt Q14145); assay: AlphaScreen; 19.2 nM FLAG-NRF2, 150 nM His-KEAP1; signal against NRF2 only
[12] = target: KEAP1 (wild-type full-length), His-tagged (human) (UniProt Q14145); assay: AlphaScreen; 4.8 nM FLAG-NRF2, 150 nM His-KEAP1; signal against NRF2 only
[13] = target: KEAP1 (wild-type full-length), His-tagged (human) (UniProt Q14145); assay: AlphaScreen; 2.4 nM FLAG-NRF2, 150 nM His-KEAP1; Rep 2
[14] = target: KEAP1 (wild-type full-length), His-tagged (human) (UniProt Q14145); assay: AlphaScreen; 9.6 nM FLAG-NRF2, 150 nM His-KEAP1; Rep 1
[15] = target: KEAP1 (wild-type full-length), His-tagged (human) (UniProt Q14145); assay: AlphaScreen; 38.4 nM FLAG-NRF2, 150 nM His-KEAP1; Rep 1
[16] = target: KEAP1 (wild-type full-length), His-tagged (human) (UniProt Q14145); assay: AlphaScreen; 1228.8 nM FLAG-NRF2, 150 nM His-KEAP1; signal against NRF2 only
[17] = target: KEAP1 (wild-type full-length), His-tagged (human) (UniProt Q14145); assay: AlphaScreen; 2.4 nM FLAG-NRF2, 150 nM His-KEAP1; signal against NRF2 only
[18] = target: KEAP1 (wild-type full-length), His-tagged (human) (UniProt Q14145); assay: AlphaScreen; 9.6 nM FLAG-NRF2, 150 nM His-KEAP1; Rep 2
[19] = target: KEAP1 (wild-type full-length), His-tagged (human) (UniProt Q14145); assay: AlphaScreen; 1228.8 nM FLAG-NRF2, 150 nM His-KEAP1; Rep 2
[20] = target: KEAP1 (wild-type full-length), His-tagged (human) (UniProt Q14145); assay: AlphaScreen; 307.2 nM FLAG-NRF2, 150 nM His-KEAP1; signal against NRF2 only
[21] = target: KEAP1 (wild-type full-length), His-tagged (human) (UniProt Q14145); assay: AlphaScreen; 1228.8 nM FLAG-NRF2, 150 nM His-KEAP1; Rep 1
[22] = target: KEAP1 (wild-type full-length), His-tagged (human) (UniProt Q14145); assay: AlphaScreen; 153.6 nM FLAG-NRF2, 150 nM His-KEAP1; signal against NRF2 only
[23] = target: KEAP1 (wild-type full-length), His-tagged (human) (UniProt Q14145); assay: AlphaScreen; 307.2 nM FLAG-NRF2, 150 nM His-KEAP1; Rep 2
[24] = target: KEAP1 (wild-type full-length), His-tagged (human) (UniProt Q14145); assay: AlphaScreen; 4.8 nM FLAG-NRF2, 150 nM His-KEAP1; Rep 1
[25] = target: KEAP1 (wild-type full-length), His-tagged (human) (UniProt Q14145); assay: AlphaScreen; 153.6 nM FLAG-NRF2, 150 nM His-KEAP1; Rep 2
[26] = target: KEAP1 (wild-type full-length), His-tagged (human) (UniProt Q14145); assay: AlphaScreen; 9.6 nM FLAG-NRF2, 150 nM His-KEAP1; signal against NRF2 only
[27] = target: KEAP1 (wild-type full-length), His-tagged (human) (UniProt Q14145); assay: AlphaScreen; 614.4 nM FLAG-NRF2, 150 nM His-KEAP1; Rep 1
[28] = target: KEAP1 (wild-type full-length), His-tagged (human) (UniProt Q14145); assay: AlphaScreen; 614.4 nM FLAG-NRF2, 150 nM His-KEAP1; signal against NRF2 only
[29] = target: KEAP1 (wild-type full-length), His-tagged (human) (UniProt Q14145); assay: AlphaScreen; 153.6 nM FLAG-NRF2, 150 nM His-KEAP1; Rep 1

Chain of KEAP1 (wild-type full-length), His-tagged (human) (Q14145 2-624 limits assumed, form in doubt): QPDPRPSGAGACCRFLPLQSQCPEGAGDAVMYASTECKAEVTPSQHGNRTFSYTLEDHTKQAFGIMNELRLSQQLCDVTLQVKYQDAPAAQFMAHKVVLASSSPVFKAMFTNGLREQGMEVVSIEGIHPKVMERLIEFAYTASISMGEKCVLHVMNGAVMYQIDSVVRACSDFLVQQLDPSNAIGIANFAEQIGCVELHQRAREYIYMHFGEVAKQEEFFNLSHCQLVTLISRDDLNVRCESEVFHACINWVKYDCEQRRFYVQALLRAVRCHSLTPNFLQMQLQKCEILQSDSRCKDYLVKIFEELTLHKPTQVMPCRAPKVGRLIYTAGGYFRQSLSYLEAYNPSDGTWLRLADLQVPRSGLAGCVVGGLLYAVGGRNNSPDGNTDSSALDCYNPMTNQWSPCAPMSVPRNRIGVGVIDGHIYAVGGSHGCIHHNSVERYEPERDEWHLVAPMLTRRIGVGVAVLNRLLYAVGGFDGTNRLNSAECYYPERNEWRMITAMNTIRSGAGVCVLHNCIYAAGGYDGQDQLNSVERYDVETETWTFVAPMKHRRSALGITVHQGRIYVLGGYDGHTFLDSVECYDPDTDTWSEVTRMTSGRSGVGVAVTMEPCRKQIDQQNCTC

Substance | A-counts [1] | S/N [2] | A-counts [3] | A-counts [4] | A-counts [5] | A-counts [6] | S/N [7] | A-counts [8] | A-counts [9] | A-counts [10] | S/N [11] | S/N [12] | A-counts [13] | A-counts [14] | A-counts [15] | S/N [16] | S/N [17] | A-counts [18] | A-counts [19] | S/N [20] | further results
NRF2 isoform 2 (wild-type full-length), FLAG-tagged | 3260 A-counts | 3.4 | 3480 A-counts | 2290 A-counts | 1130 A-counts | 1670 A-counts | 3.4 | 3460 A-counts | 2970 A-counts | 3730 A-counts | 4.2 | 2.7 | 1010 A-counts | 2310 A-counts | 3470 A-counts | 1.3 | 2 | 2590 A-counts | 1470 A-counts | 2.2 | A-counts [21]: 1480 A-counts; S/N [22]: 2.8; A-counts [23]: 2860 A-counts; A-counts [24]: 1740 A-counts; A-counts [25]: 3500 A-counts; S/N [26]: 3.7; A-counts [27]: 2430 A-counts; S/N [28]: 2.1; A-counts [29]: 3200 A-counts
NRF2 isoform 2 (E63G/E66G full-length), FLAG-tagged | 1950 A-counts | 1.8 | 1700 A-counts | 1400 A-counts | 1080 A-counts | 1480 A-counts | 1.7 | 1960 A-counts | 1600 A-counts | 2140 A-counts | 1.8 | 1.8 | 1120 A-counts | 1670 A-counts | 2120 A-counts | 1 | 1.7 | 1520 A-counts | 1210 A-counts | 1.1 | A-counts [21]: 1250 A-counts; S/N [22]: 1.5; A-counts [23]: 1650 A-counts; A-counts [24]: 1390 A-counts; A-counts [25]: 1840 A-counts; S/N [26]: 1.8; A-counts [27]: 1570 A-counts; S/N [28]: 1.1; A-counts [29]: 1820 A-counts
